In patent US20230201357, “D-DIMER-SPECIFIC APTAMERS AND METHODS OF USE IN DIAGNOSTICS, THERAPEUTIC AND THERANOSTIC PURPOSES” (APTAMER DIAGNOSTIC, INC., published 2023) one finds binding result and Kd data, which are given here for six molecules.

The target of series [1] is T1, D-dimer (cross-linked fibrin degradation product) (Homo sapiens, UniProt P02671;P02675;P02679 SEQ:1-87,SEQ:1-328,SEQ:1-324). Nature of the series: ELONA; 25 nM. To be noted: tags: none stated; about 180 kDa; chain copies: 2 of each chain (inferred); label: biotin (5' or 3'). How it is done: (§1) 25 nM of either 3′ Bioitnilated ADI1701, Truncation 1, Truncation 2, Truncation 3, Truncation 4, Truncation 5, scrambled sequence 1, scrambled sequence 2 and scrambled sequence 3 was incubated with D-Dimer protein immobilized on a 96 well ELISA plate. As a control, 3′ Biotin-ADI1701 was incubated with fibrinogen or two plasma samples from donors with low D-Dimer levels (<200 ng/ml) immobilized on the plate. Absorbance was measured after incubation with streptavidin horse radish peroxidase bound to the biotinylated aptamer in the presence of the substrate 3,3′,5,5′-Tetramethylbenzidine (TMB). […] Deleting three or five bases from the 5′ end of ADI1701 decreased the binding to D-dimer by 33%. […] The values shown are subtracted from the absorbance measured in the presence of albumin that was used as the blank.
T1 sequence (P02671 130-216, chain 1 of 3): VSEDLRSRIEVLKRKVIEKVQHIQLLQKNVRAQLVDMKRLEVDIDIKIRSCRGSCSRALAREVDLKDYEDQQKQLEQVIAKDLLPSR
T1 sequence (P02675 164-491, chain 2 of 3): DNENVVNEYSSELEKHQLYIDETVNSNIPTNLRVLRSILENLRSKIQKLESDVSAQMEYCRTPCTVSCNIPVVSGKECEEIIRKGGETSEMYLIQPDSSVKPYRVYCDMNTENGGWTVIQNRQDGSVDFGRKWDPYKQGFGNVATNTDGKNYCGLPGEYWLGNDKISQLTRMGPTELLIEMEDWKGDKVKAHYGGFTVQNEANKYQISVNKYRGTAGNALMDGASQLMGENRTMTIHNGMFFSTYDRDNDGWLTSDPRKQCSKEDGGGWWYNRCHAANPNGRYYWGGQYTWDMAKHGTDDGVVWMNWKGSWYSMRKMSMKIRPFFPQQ
T1 sequence (P02679 other isoform, or with tags, fused parts or gaps, chain 3 of 3): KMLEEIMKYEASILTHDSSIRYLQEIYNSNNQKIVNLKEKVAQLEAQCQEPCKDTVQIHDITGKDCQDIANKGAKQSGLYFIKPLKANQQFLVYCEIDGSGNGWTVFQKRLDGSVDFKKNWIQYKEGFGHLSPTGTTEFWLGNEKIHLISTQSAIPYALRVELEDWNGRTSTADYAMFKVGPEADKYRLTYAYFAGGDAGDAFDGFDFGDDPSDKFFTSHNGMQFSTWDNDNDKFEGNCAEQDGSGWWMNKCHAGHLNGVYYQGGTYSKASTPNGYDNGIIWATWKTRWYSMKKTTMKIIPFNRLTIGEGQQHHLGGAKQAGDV
(§2) Various truncations were made to the 3′ Biotinylated-ADI1701 aptamer from the 5′ and 3′-ends. Deleting as little as 3 bases from the 5′-end or 5 bases from the 3′-end affected the binding of ADI1701 to D-dimer (FIG. 7). Again, none of the scrambled sequences with Biotin label on either the 5′ or 3′-ends presented any binding to D-dimer.

Series [2] addresses T1, D-dimer (cross-linked fibrin …). Nature of the series: SPR; SPRi, biotinylated aptamer on streptavidin gold, 10 nM D-dimer in flow; ka 2.0e6, kd 0.0048 per s. To be noted: tags: none stated; about 180 kDa; chain copies: 2 of each chain (inferred); label: 3' biotin. How it is done:
Interaction between ADI1701 and D-dimer was analyzed by a SPR device, Openplex SPRi system from Horiba Scientific. Various amounts of ADI1701 (5 fmol, 50 fmmol and 500 fmol) were immobilized on a gold sensor chip, and D-dimer (10 nM) was injected to the flow cell, and ScrubberGen Ver. 2.0g software was used to subtract the references. […] Nonspecific binding of D-dimer to ADI1701scram was subtracted at the respective concentrations.
Further studies on the specificity and affinity of binding of ADI1701 to D-dimer were performed using Surface plasmon resonance (SPR). SPR has become an important optical bio-sensing technology in the areas of biochemistry, biology, and medical sciences because of its real-time, label-free, and noninvasive nature. Various amounts of biotinylated ADI1701 were immobilized on streptavidin coated gold surface and D-dimer to flow through. It is shown herein that ADI1701 binds directly to D-Dimer (FIG. 8).

Series [3] deals with T2, Fibrinogen (UniProt P02671-2;P02675;P02679-2 P02671-2:20-644,P02675:31-491,P02679-2:27-437). Nature of the series: ELONA; 25 nM aptamer, immobilized fibrinogen; low D-dimer plasma also negative. To be noted: chain copies: 2; label: 3' biotin. How it is done:
as §1, §2

Series [4] has as its target T2, Fibrinogen. Nature of the series: EMSA; native PAGE, no band overlapping fibrinogen. As to conditions: chain copies: 2.
Series [5] has as its target T1, D-dimer (cross-linked fibrin …). Nature of the series: latex bead agglutination; seen at lower concentration than with fibrinogen. To be noted: tags: none stated; about 180 kDa; chain copies: 2 of each chain (inferred). How it is done: (§3) FIGS. 10A and 10B show photomicrographs of Latex-Aptamer Beads at Different Preparations and at Two Extreme Levels of D-Dimer Concentration. […] The well concentration of the proteins are (serial dilution from left to right, per 150 uL total well volume): 10 nM, 5 nM, 2.5 nM and 1.25 nM of D-Dimer; 10 nM, 5 nM, 2.5 nM and 1.25 nM of Fibrinogen; 750 nM, 375 nM, 188 nM and 94 nM of the BSA. (Ref: NB3, p 19-20, Aug. 29, 2017). 50 ul of aptamer conjugated to the latex beads were added to each well.
(§4) FIG. 10 represents an image of the wells section of a 96-well plate with the initial testing of coagulation.

For another series, the target named is Bovine serum albumin (Bos taurus, UniProt P02769 P02769:25-607). Nature of the series: latex bead agglutination, no agglutination at highest BSA amount. How it is done: as §3, §4
Bovine serum albumin, sequence (P02769 25-607, one chain of several): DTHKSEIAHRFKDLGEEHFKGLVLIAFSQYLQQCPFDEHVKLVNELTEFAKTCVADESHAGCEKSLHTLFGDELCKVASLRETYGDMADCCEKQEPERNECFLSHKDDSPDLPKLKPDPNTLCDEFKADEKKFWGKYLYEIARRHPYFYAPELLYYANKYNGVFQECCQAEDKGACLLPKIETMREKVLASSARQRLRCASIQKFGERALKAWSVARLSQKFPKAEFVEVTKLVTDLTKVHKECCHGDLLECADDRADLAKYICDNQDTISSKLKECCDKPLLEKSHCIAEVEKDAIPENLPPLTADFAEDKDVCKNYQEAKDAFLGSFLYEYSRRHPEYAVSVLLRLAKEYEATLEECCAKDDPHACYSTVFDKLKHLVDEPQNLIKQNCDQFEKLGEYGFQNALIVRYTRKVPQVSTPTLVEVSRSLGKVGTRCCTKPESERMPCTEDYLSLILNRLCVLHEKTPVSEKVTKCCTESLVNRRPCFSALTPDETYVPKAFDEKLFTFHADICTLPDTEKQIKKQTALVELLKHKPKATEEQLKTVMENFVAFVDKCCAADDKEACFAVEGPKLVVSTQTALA
Series [6] addresses T1, D-dimer (cross-linked fibrin …). Nature of the series: ELONA; estimated from saturation curve; text says 5' biotin, FIG. 6 legend says 3' biotin. As to conditions: tags: none stated; about 180 kDa; chain copies: 2 of each chain (inferred); label: 5' biotin.

T2 sequence (P02671 other isoform, or with tags, fused parts or gaps, chain 1 of 3): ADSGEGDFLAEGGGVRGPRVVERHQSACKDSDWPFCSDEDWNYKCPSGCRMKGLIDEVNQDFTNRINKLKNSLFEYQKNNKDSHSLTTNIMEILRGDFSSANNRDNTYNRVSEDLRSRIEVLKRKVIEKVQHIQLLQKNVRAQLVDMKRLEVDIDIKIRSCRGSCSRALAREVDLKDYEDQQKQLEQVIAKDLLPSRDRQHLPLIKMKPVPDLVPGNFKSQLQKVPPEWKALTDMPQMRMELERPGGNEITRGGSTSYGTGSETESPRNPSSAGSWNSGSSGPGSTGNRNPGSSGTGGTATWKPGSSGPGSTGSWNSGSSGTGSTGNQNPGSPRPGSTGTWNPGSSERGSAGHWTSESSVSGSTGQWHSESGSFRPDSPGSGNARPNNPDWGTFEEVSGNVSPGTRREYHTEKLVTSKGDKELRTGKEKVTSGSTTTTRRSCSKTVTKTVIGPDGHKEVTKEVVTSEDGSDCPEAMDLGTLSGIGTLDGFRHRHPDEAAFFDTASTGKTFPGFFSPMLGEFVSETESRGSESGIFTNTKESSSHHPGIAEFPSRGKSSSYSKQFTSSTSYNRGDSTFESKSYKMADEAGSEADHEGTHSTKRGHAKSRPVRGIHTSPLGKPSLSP
T2 sequence (P02675 31-491, chain 2 of 3): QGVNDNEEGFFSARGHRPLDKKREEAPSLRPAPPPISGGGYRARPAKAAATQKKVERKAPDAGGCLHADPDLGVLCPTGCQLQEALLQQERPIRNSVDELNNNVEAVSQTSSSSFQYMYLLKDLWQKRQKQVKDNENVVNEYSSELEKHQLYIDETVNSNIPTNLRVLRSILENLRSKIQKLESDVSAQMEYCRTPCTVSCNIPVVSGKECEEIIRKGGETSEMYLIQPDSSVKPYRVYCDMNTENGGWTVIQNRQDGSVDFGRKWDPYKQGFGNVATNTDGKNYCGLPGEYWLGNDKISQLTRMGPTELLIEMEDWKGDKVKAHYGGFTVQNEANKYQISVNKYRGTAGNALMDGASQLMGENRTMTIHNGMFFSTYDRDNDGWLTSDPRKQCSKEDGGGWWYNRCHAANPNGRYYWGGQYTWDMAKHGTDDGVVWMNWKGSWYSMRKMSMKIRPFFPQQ
T2 sequence (P02679 other isoform, or with tags, fused parts or gaps, chain 3 of 3): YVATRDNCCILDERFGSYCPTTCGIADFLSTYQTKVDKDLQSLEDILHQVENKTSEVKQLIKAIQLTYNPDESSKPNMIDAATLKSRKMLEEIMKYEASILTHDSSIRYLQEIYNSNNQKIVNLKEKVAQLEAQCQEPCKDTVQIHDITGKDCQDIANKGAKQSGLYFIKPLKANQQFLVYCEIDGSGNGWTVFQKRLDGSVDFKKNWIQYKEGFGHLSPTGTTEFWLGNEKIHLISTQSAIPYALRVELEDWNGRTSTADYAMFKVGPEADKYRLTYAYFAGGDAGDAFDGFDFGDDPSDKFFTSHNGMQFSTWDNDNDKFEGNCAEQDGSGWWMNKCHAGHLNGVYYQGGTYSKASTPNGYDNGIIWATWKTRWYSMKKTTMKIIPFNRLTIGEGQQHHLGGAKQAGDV

B1: Scrambled Sequence 1 (ssDNA)
DNA: TTGTTAGATACTCGCTCTCATCCGCCGTACAACTGGCCAG
In the case of B1, in series [1], the binding result was “no binding”.

B2: 3'Biotin-ADI1701 (ssDNA)
DNA: GCGCGGTCCCGATTTGGTGTAAAATTCCCTCAGCCCTACA
On to B2, for which, in series [2], the Kd turned out to be 2.5 nM. In addition, in the series with Fibrinogen [3], the binding result was “no binding”.

B3: ADI1701 (ssDNA)
DNA: GCGCGGTCCCGATTTGGTGTAAAATTCCCTCAGCCCTACA
On to B3, for which the binding result with Fibrinogen [4] is given as “no binding”.

B4: ADI1701-latex (NH2-C6-ADI1701 coupled to beads) (ssDNA)
DNA: GCGCGGTCCCGATTTGGTGTAAAATTCCCTCAGCCCTACA
modifications: NH2-C6 linker, latex conjugate
Consider B4, for which the binding result in series [5] was “binds”; with Bovine serum albumin, “no binding”.

B5: 5'Biotin-ADI1701 (ssDNA)
DNA: GCGCGGTCCCGATTTGGTGTAAAATTCCCTCAGCCCTACA
Regarding B5, the Kd in series [6] is around 10 nM.

B6: Scrambled Sequence 2 (ssDNA)
DNA: ACTACCGATGCGGACTTATCCGCACGTACCGCTATTGTAG
Take B6: in series [1], the binding result is reported as “no binding”.
